Measurements: paper PMC3542637 (Biochemistry, 2012)

Biological target: the molecule itself
Assay: crystal structure

B1: L-fucose dehydrogenase BmulJ_04919 from Burkholderia multivorans ATCC 17616 (enzyme, UniProt A0A0H3KNE7 1-258, looked up)
chain: MDLNLQDKVVIVTGGASGIGGAISMRLAEERAIPVVFARHAPDGAFLDALAQRQPRATYLPVELQDDAQCRDAVAQTIATFGRLDGLVNNAGVNDGIGLDAGRDAFVASLERNLIHYYAMAHYCVPHLKATRGAIVNISSKTAVTGQGNTSGYCASKGAQLALTREWAVALREHGVRVNAVIPAEVMTPLYRNWIATFEDPEAKLAEIAAKVPLGRRFTTPDEIADTAVFLLSPRASHTTGEWLFVDGGYTHLDRALV
  stoichiometry N: 4
